Substitutions are numbered along the chain they refer to. Each block holds one binder with its values, some of them ahead of it.
Experiments:
[1] = target: T1, SIRPα V9 fusion Fc (mouse IgG2a) (human; mouse); test: ELISA, plate coated with SIRPα V9-Fc (mouse IgG2a), anti-hFab secondary, OD450
T1 construct: No linker mentioned between SIRPα and Fc
T1 chain: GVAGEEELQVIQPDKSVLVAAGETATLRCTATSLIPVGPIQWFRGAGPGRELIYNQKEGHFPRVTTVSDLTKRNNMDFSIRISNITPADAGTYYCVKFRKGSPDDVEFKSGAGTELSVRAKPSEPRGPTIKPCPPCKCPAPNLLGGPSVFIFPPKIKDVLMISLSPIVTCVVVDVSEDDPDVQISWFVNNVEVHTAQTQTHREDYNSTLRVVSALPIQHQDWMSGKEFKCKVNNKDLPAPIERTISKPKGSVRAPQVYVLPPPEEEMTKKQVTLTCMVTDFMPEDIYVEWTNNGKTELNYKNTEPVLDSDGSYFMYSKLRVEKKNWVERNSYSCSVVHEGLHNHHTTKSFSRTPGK
Description: (§1) The plate was coated with SIRPα V1/V2/V3/V4/V5/V6/V7/V8/V9/V10 at 1 μg/ml, 60 μl/well overnight at 4° C., and washed twice with PBST; blocked with 5% non-fat milk (Sangon) of 200 μl/well, incubated at room temperature for 1 h, and washed twice with PBST. Antibody was incubated at 10 μg/ml, diluted with 5 times for 10 gradients, 60 μl/well, incubated at room temperature for 1 h, and washed with PBST 5 times. Secondary antibody incubation: anti-hFab 1:10000, 60 μl/well, incubated at room temperature for 1 h, washed with PBST 5 times. Developing: TMB was equilibrated at room temperature for 1 h in advance, 100 μl/well, to develop for 10 min, 2M H₂SO₄ of 50 ul/well was used for termination, and reading was performed at 450 nm on microplate reader.

[2] = target: T2, SIRPα V1 fusion Fc (mouse IgG2a) (human; mouse); test: ELISA, plate coated with SIRPα V1-Fc (mouse IgG2a), anti-hFab secondary, OD450
T2 construct: No linker mentioned between SIRPα and Fc
T2 chain: T1 chain with S83G
Description: as §1

[3] = target: T3, SIRPα V6 fusion Fc (mouse IgG2a) (human; mouse); test: ELISA, plate coated with SIRPα V6-Fc (mouse IgG2a), anti-hFab secondary, OD450
T3 construct: No linker mentioned between SIRPα and Fc
T3 chain: T1 chain with S79P, S83G
Description: as §1

[4] = target: SIRPα V8 fusion Fc (mouse IgG2a) (human; mouse); test: ELISA, plate coated with SIRPα V8-Fc (mouse IgG2a), anti-hFab secondary, OD450
Description: as §1

[5] = target: SIRPα V7 fusion Fc (mouse IgG2a) (human; mouse); test: ELISA, plate coated with SIRPα V7-Fc (mouse IgG2a), anti-hFab secondary, OD450
Description: as §1

[6] = target: T4, human SIRPα naturally expressed on human renal clear cell adenocarcinoma 786-O cells (human, UniProt P78324 31-504); test: FACS on 786-O cells, PE-anti human FC secondary, MFI; unit from the axis Log[Abs,nM]
T4 construct: whole, on cells
T4 sequence (P78324 31-504): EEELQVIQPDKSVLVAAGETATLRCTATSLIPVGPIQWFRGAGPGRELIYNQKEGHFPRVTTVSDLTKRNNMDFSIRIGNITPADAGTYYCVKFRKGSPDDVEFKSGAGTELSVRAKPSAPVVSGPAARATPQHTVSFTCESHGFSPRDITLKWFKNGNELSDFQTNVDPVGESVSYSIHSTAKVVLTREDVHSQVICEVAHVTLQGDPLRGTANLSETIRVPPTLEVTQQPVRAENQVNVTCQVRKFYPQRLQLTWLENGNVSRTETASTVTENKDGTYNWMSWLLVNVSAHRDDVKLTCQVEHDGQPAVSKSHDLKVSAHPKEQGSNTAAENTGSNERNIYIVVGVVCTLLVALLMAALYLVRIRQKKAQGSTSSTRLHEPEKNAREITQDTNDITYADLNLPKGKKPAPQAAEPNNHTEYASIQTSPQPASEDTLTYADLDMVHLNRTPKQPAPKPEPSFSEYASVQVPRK
Description: Blocking: the cells were resuspended with 2% FBS and were seeded into 96-well U bottom plate with 2E5/well, 200 μl/well, then subjected to ice bath for 1 h. Centrifugation was performed at 300 g for 3 min, and the supernatant was discarded. Antibody incubation: 10 μg/ml antibodies for incubation were diluted at 1:3, 100 μl/well, and subjected to ice bath for 1 h. Centrifugation was performed, and the supernatant was discarded. Pre-cooled PBS was added at 200 μl/well, centrifuged at 300 g for 5 min to discard supernatant, which was repeated twice. Secondary antibody: PE-anti human FC (1:200) 50 μl/well was subjected to ice bath for 0.5h. Centrifugation was performed and the supernatant was discarded. Pre-cooled PBS was added at 200 μl/well, centrifuged at 300 g for 5 min to discard supernatant, which was repeated 3 times. The mean fluorescence values were read on FACS.

[7] = target: SIRPα V10 fusion Fc (mouse IgG2a) (human; mouse); test: ELISA, plate coated with SIRPα V10-Fc (mouse IgG2a), anti-hFab secondary, OD450
Description: as §1

[8] = target: T5, SIRPα V4 fusion Fc (mouse IgG2a) (human; mouse); test: ELISA, plate coated with SIRPα V4-Fc (mouse IgG2a), anti-hFab secondary, OD450
T5 construct: No linker mentioned between SIRPα and Fc
T5 chain: T1 chain with E7G, L18S, T24S, T26I, R28H, S83G
Description: as §1

[9] = target: T6, SIRPα V2 fusion Fc (mouse IgG2a) (human; mouse); test: ELISA, plate coated with SIRPα V2-Fc (mouse IgG2a), anti-hFab secondary, OD450
T6 construct: No linker mentioned between SIRPα and Fc
Description: as §1

EC50 (read off the curve) [1]: ~0.2 nM
EC50 (read off the curve) [2]: ~0.2 nM
EC50 (read off the curve) [3]: ~0.1 nM
EC50 (read off the curve) [4]: ~0.2 nM
EC50 (read off the curve) [5]: ~0.1 nM
EC50 [6]: 0.245 nM
B1: QP026249 (control antibody, variable regions of KWAR23, human IgG4/kappa) (antibody)
light: QIVLTQSPAIMSASPGEKVTLTCSASSSVSSSYLYWYQQKPGSSPKLWIYSTSNLASGVPARFSGSGSGTSYSLTISSMEAEDAASYFCHQWSSYPRTFGAGTKLELKRTVAAPSVFIFPPSDEQLKSGTASVVCLLNNFYPREAKVQWKVDNALQSGNSQESVTEQDSKDSTYSLSSTLTLSKADYEKHKVYACEVTHQGLSSPVTKSFNRGEC
heavy: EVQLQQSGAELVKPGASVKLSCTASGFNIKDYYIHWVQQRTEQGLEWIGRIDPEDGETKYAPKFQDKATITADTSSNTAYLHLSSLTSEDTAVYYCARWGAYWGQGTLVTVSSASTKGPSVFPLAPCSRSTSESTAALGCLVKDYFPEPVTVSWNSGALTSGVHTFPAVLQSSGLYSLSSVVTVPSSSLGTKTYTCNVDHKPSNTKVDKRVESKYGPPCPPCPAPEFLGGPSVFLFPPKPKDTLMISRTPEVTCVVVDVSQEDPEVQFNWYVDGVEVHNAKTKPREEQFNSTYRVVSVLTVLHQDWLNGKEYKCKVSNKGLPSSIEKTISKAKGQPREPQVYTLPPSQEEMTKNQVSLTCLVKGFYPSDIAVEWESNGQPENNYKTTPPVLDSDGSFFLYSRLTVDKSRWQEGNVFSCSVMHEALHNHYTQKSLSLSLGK
notes: also called KWAR23 (QP026249)

EC50 [6]: 0.204 nM
B2: QP256253 (humanized anti-SIRPα antibody, QP163164 humanized clone) (antibody, human IgG4, V domains shown)
VH: QVQLVQSGAEVKKPGASVKVSCKASGYTFTNYWINWVRQAPGQGLEWIAMIDPSDSETHYNQIFKDRATLTTDTSTSTAYMELRSLRSDDTAVYYCAMDYGSLYAMDYWGRGTLVTVSS
VL: DIVLTQSPDSLAVSLGERATINCRASKSVSSSGYNYIFWYQQKPGQPPKLLIYLASNLDSGVPDRFSGSGSGTDFTLTISSLQAEDVAVYYCQHSRELPTFGQGTKLEIK

EC50 [6]: 0.217 nM
B3: QP2561586 (affinity-matured humanized anti-SIRPα antibody) (antibody, IgG4, V domains shown)
VH: B2 VH
VL: B2 VL with H94E
notes: hIgG4 constant region, kappa CL

EC50 (read off the curve) [7]: ~0.07 nM
EC50 (read off the curve) [8]: ~0.06 nM
EC50 (read off the curve) [9]: ~0.07 nM
EC50 (read off the curve) [2]: ~0.08 nM
EC50 (read off the curve) [5]: ~0.07 nM
B4: QP256279 (affinity-matured humanized anti-SIRPα antibody) (antibody, IgG4, V domains shown)
VH: B2 VH
VL: B2 VL with K27Q, S30R, Y36W, L58R
notes: full-length IgG with hIgG4 constant region and kappa CL; also called CHO71 (QP256279 stably expressed in CHOS cells)

EC50 [6]: 0.188 nM
B5: QP2561589 (affinity-matured humanized anti-SIRPα antibody) (antibody, IgG4, V domains shown)
VH: B2 VH
VL: B2 VL with H94E, R96W
notes: as for B3
